Data: the supplement of paper PMC9170038

tested on: K4 kissing-loop RNA reporter; experiment: apparent KD of K4 kissing-loop reporter; higher = weaker reporter binding; conditions: Eterna round: R107; input ligand: FMN 200 uM
Method: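 RNA-MaP round R107: designed RNA switches with theophylline, tryptophan, arginine or FMN aptamers are transcribed on-chip within common flanks. They are titrated with a labelled K4 kissing-loop RNA reporter in RNA-MaP buffer (100 mM Tris pH 7.5, 80 mM KCl, 4 mM MgCl2), without ligand or with the indicated ligand. Median apparent KD per design.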
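Also: bound reporter read as fluorescence of individual clusters on recovered sequencing chips by microscopy, with normalized cluster intensities fitted with a binding model.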

| Sequence | apparent KD of K4 kissing-loop reporter [nM] |
| --- | --- |
| AAAAUAAUCCAGUGAUGUUGGUAUCCAGAUACCAGCCAGGAAACUGGCCCUUGGCAGCUGGCGACGUACAAAAUAAGUACGUCGU [#OpenEnded 11 #StaticStem #K4Early] | 405 |
| AAUCGAGUGAUGUUCGAUGUAGUGCAUUCAGAGGAUAUAGGAUGGGCUAGAAGGCUGAAAAGUGCUUCGAGUGAUGUUCGAAGAU [Exclusion FMN A GF 4] | 47.1 |
| AAUAUAAAGUCGGCCGCCACUGGAUUUAUAUUUGUUAAAUCUGGAUCAAAGUGAUGUUUUGAGUCCAGGACCGGGACAAUUGUUA [JR_ExcTryptoB_Sub001] | 123 |
| UGAUAAAGCAGUGAUGUUGCAAGUAAUGAUACCAGUUAAGAAGAGAACCCUUGGCAGCAUAAAGUGCGCUCUAAUGAGUGUGCUU [whbob_SS_Theo_A_w51] | 82.9 |
| GUUACGCAUGGAAGGAGCGCAGGCUCAACAAAUAGCUCAGUGAUGUUGAGCAUAUUAAAUCUGCAGGUAGGUCGCCAUGUGUAAC [Ex Arginine B K4 24] | 498 |
| GGUGACAGCCAGGAGUGAUGUAUAGAAUAGCGAGGACCGGUACGGCCGCCACUCGUGAAGAGAAAGGAGUGAUGUUCCGUAAUGG [Kazoo C2] | 224 |
| UGACAUUGCUCAGAUACCAGACUUGAGGAACACCCAAGUGCCAAAUAAACGUACAUAAAAGUCCCUUGGCAGCUGAGCAAUGUCU [TheoBX 11] | 66 |
| GCGGGCCCUGGAGGAUAUGAGUCGAGUGAUGUUCGGCGGUCCAUGCCGAUGCGGCGUUAUGCCCUUUUAGAAGGCCAGGGUCCGC [#2 Exclusion - FMN B Attempt #8 (HarryS)] | 543 |
| CUGCCGUUUACAGAUACCAGACUAAUAACGGCAGCACAGAAUGUGAGUGAUGUUCGCAUAGUCCCUUGGCAGCUGUAUAACAGUA [Theo B Ex t3] | 219 |
| GGCCAAAGAGAGUGAUGUUCUCAAUAUGAAGGAGCGCCCGAAAGGGCAGGUAGGUCGCAUAACGGCCACCUACGAAAAGUAGGAA [#SwitchBubble 4 #K4Early] | 91.3 |
| AAGUGUGUGGCGGCCGCCACUAGAAUCCAGUGAUGUUGGAGAUAUCAUGUAAAUGAUAUCCAACAUAGGACCGGGCCAUAUAGAA [Same State - Tryptophan B (Freestyle 10)] | 126 |
| CAGCAUCUGAGUGGUAGCCAUUGAGAGAUGCAGGAUAUCUGGAAACAGAGAAGGGCAGUGAGUGAUGUUCACGGCUGGCUUGGUU | 154 |
| UGAUAGGACAGAAGGAGCGGGAGUGAUGUUCCCAAUAAAAGGUCUAGCAAAGCUAGACCCUCCCAGGUAGGUCGCUGUCCUAUCU [ArgBX 2 #Palindromic #SwitchBubble #StaticStem] | 234 |
| UGGGUGUAGUGAUGUUAUAUAGAGAAUGAUACCAGCUUAGAGAGGAGCCCUUGGCAGCGUAGACGAGUAUCAUUGGAGGAGGAGG [#22 K4 Theophylline A Exclusion] | 714 |
| AAUACUAUCAGAAGGAGCGUGGAAUAUUCAUCUGUAUCUAAUACGAGUGAUGUUCGUAAUUCACAGGUAGGUCGCUGAUUAAUAC [whbob_Ex_Arginine_B_2th158] | 265 |
| CUAUAUAGUGAUGUUAUAUAGAUAACAGAUACCAGCUAGAAAACUAGCCCUUGGCAGCUGAUAAGGGAAAGUAUAAUUGUGUAAA [AstroSTH-A#DifdesignED20.18] | 82.1 |
| UAUAGCGUCAGAAGGAGCGUGAGUAUAACAUGGCUGGAGUGAUGUUCCAGGAGUUAAUACUCACAGGUAGGUCGCUGACUCCUGG [Arg B SS t2] | 173 |

same assay, conditions: Eterna round: R107; input ligand: arginine 13.2 mM

| Sequence | apparent KD of K4 kissing-loop reporter [nM] |
| --- | --- |
| AAAAUAAUCCAGUGAUGUUGGUAUCCAGAUACCAGCCAGGAAACUGGCCCUUGGCAGCUGGCGACGUACAAAAUAAGUACGUCGU [#OpenEnded 11 #StaticStem #K4Early] | 184 |
| AAUCGAGUGAUGUUCGAUGUAGUGCAUUCAGAGGAUAUAGGAUGGGCUAGAAGGCUGAAAAGUGCUUCGAGUGAUGUUCGAAGAU [Exclusion FMN A GF 4] | 49 |
| AAUAUAAAGUCGGCCGCCACUGGAUUUAUAUUUGUUAAAUCUGGAUCAAAGUGAUGUUUUGAGUCCAGGACCGGGACAAUUGUUA [JR_ExcTryptoB_Sub001] | 117 |
| UGAUAAAGCAGUGAUGUUGCAAGUAAUGAUACCAGUUAAGAAGAGAACCCUUGGCAGCAUAAAGUGCGCUCUAAUGAGUGUGCUU [whbob_SS_Theo_A_w51] | 138 |
| GUUACGCAUGGAAGGAGCGCAGGCUCAACAAAUAGCUCAGUGAUGUUGAGCAUAUUAAAUCUGCAGGUAGGUCGCCAUGUGUAAC [Ex Arginine B K4 24] | 500 |
| GGUGACAGCCAGGAGUGAUGUAUAGAAUAGCGAGGACCGGUACGGCCGCCACUCGUGAAGAGAAAGGAGUGAUGUUCCGUAAUGG [Kazoo C2] | 178 |
| UGACAUUGCUCAGAUACCAGACUUGAGGAACACCCAAGUGCCAAAUAAACGUACAUAAAAGUCCCUUGGCAGCUGAGCAAUGUCU [TheoBX 11] | 34.1 |
| GCGGGCCCUGGAGGAUAUGAGUCGAGUGAUGUUCGGCGGUCCAUGCCGAUGCGGCGUUAUGCCCUUUUAGAAGGCCAGGGUCCGC [#2 Exclusion - FMN B Attempt #8 (HarryS)] | 234 |
| CUGCCGUUUACAGAUACCAGACUAAUAACGGCAGCACAGAAUGUGAGUGAUGUUCGCAUAGUCCCUUGGCAGCUGUAUAACAGUA [Theo B Ex t3] | 199 |
| GGCCAAAGAGAGUGAUGUUCUCAAUAUGAAGGAGCGCCCGAAAGGGCAGGUAGGUCGCAUAACGGCCACCUACGAAAAGUAGGAA [#SwitchBubble 4 #K4Early] | 96.6 |
| AAGUGUGUGGCGGCCGCCACUAGAAUCCAGUGAUGUUGGAGAUAUCAUGUAAAUGAUAUCCAACAUAGGACCGGGCCAUAUAGAA [Same State - Tryptophan B (Freestyle 10)] | 98 |
| CAGCAUCUGAGUGGUAGCCAUUGAGAGAUGCAGGAUAUCUGGAAACAGAGAAGGGCAGUGAGUGAUGUUCACGGCUGGCUUGGUU | 132 |
| UGAUAGGACAGAAGGAGCGGGAGUGAUGUUCCCAAUAAAAGGUCUAGCAAAGCUAGACCCUCCCAGGUAGGUCGCUGUCCUAUCU [ArgBX 2 #Palindromic #SwitchBubble #StaticStem] | 265 |
| UGGGUGUAGUGAUGUUAUAUAGAGAAUGAUACCAGCUUAGAGAGGAGCCCUUGGCAGCGUAGACGAGUAUCAUUGGAGGAGGAGG [#22 K4 Theophylline A Exclusion] | 924 |
| AAUACUAUCAGAAGGAGCGUGGAAUAUUCAUCUGUAUCUAAUACGAGUGAUGUUCGUAAUUCACAGGUAGGUCGCUGAUUAAUAC [whbob_Ex_Arginine_B_2th158] | 245 |
| CUAUAUAGUGAUGUUAUAUAGAUAACAGAUACCAGCUAGAAAACUAGCCCUUGGCAGCUGAUAAGGGAAAGUAUAAUUGUGUAAA [AstroSTH-A#DifdesignED20.18] | 73 |
| UAUAGCGUCAGAAGGAGCGUGAGUAUAACAUGGCUGGAGUGAUGUUCCAGGAGUUAAUACUCACAGGUAGGUCGCUGACUCCUGG [Arg B SS t2] | 125 |

same assay, conditions: Eterna round: R107; input ligand: none

| Sequence | apparent KD of K4 kissing-loop reporter [nM] |
| --- | --- |
| AAAAUAAUCCAGUGAUGUUGGUAUCCAGAUACCAGCCAGGAAACUGGCCCUUGGCAGCUGGCGACGUACAAAAUAAGUACGUCGU [#OpenEnded 11 #StaticStem #K4Early] | 470 |
| AAUCGAGUGAUGUUCGAUGUAGUGCAUUCAGAGGAUAUAGGAUGGGCUAGAAGGCUGAAAAGUGCUUCGAGUGAUGUUCGAAGAU [Exclusion FMN A GF 4] | 76.7 |
| AAUAUAAAGUCGGCCGCCACUGGAUUUAUAUUUGUUAAAUCUGGAUCAAAGUGAUGUUUUGAGUCCAGGACCGGGACAAUUGUUA [JR_ExcTryptoB_Sub001] | 120 |
| UGAUAAAGCAGUGAUGUUGCAAGUAAUGAUACCAGUUAAGAAGAGAACCCUUGGCAGCAUAAAGUGCGCUCUAAUGAGUGUGCUU [whbob_SS_Theo_A_w51] | 103 |
| GUUACGCAUGGAAGGAGCGCAGGCUCAACAAAUAGCUCAGUGAUGUUGAGCAUAUUAAAUCUGCAGGUAGGUCGCCAUGUGUAAC [Ex Arginine B K4 24] | 504 |
| GGUGACAGCCAGGAGUGAUGUAUAGAAUAGCGAGGACCGGUACGGCCGCCACUCGUGAAGAGAAAGGAGUGAUGUUCCGUAAUGG [Kazoo C2] | 193 |
| UGACAUUGCUCAGAUACCAGACUUGAGGAACACCCAAGUGCCAAAUAAACGUACAUAAAAGUCCCUUGGCAGCUGAGCAAUGUCU [TheoBX 11] | 62.5 |
| GCGGGCCCUGGAGGAUAUGAGUCGAGUGAUGUUCGGCGGUCCAUGCCGAUGCGGCGUUAUGCCCUUUUAGAAGGCCAGGGUCCGC [#2 Exclusion - FMN B Attempt #8 (HarryS)] | 283 |
